Series [1] concerns Saccharomyces cerevisiae phytase. As to the kind of experiment: phosphate release, ammonium molybdate, Lineweaver-Burk. The class given is biochemical. The conditions noted are these: pH 5.0, 37°C, 100 mM sodium acetate; InsP3 prepared with S. cerevisiae phytase.
Series [2] concerns the target T1, phytase from Aspergillus niger 11T53A9 (Aspergillus niger, UniProt P34752).
T1 sequence (P34752 24-467): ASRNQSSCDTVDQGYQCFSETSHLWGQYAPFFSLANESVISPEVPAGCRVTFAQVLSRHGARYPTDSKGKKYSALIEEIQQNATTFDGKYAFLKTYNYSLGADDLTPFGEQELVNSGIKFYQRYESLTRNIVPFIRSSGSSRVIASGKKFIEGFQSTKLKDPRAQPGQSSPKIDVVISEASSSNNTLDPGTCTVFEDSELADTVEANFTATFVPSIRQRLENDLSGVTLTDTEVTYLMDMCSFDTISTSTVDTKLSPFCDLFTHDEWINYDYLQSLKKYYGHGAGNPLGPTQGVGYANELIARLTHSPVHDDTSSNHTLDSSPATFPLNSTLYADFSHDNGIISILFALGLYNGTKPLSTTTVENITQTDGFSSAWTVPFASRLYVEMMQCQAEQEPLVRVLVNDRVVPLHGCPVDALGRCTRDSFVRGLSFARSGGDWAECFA
As to the kind of experiment: biochemical.

Substrate in series [3]: O=P(O)(O)Oc1cccc2ccccc12
In words: purified protein. The conditions noted are these: pH 5.0, 37°C, 100 mM sodium acetate.

Substrate in series [4]: Nc1ncnc2c1ncn2[C@@H]1O[C@H](COP(=O)(O)OP(=O)(O)O)[C@@H](O)[C@H]1O
As to the kind of experiment: purified protein. The conditions noted are these: pH 5.0, 37°C, 100 mM sodium acetate.

Substrate in series [5]: O=P(O)(O)Oc1ccc2ccccc2c1
As to the kind of experiment: purified protein. The conditions noted are these: pH 5.0, 37°C, 100 mM sodium acetate.

Substrate in series [6]: O=P(O)(O)O[C@H]1O[C@H](CO)[C@@H](O)[C@H](O)[C@H]1O
As to the kind of experiment: purified protein. The conditions noted are these: pH 5.0, 37°C, 100 mM sodium acetate.

Substrate in series [7]: O=[N+]([O-])c1ccc(OP(=O)(O)O)cc1
As to the kind of experiment: purified protein. The conditions noted are these: pH 5.0, 37°C, 100 mM sodium acetate.

Substrate in series [8]: Nc1ncnc2c1ncn2[C@@H]1O[C@H](COP(=O)(O)O)[C@@H](O)[C@H]1O
In words: purified protein. The conditions noted are these: pH 5.0, 37°C, 100 mM sodium acetate.

Substrate in series [9]: O=P(O)(O)Oc1ccccc1
In words: purified protein. The conditions noted are these: pH 5.0, 37°C, 100 mM sodium acetate.

Substrate in series [10]: O=P(O)(O)O[C@H]1[C@H](OP(=O)(O)O)[C@@H](OP(=O)(O)O)[C@H](OP(=O)(O)O)[C@@H](OP(=O)(O)O)[C@H]1OP(=O)(O)O
In words: purified protein. The conditions noted are these: pH 5.0, 37°C, 100 mM sodium acetate.

Substrate in series [11]: Nc1ncnc2c1ncn2[C@@H]1O[C@H](COP(=O)(O)OP(=O)(O)OP(=O)(O)O)[C@@H](O)[C@H]1O
In words: purified protein. The conditions noted are these: pH 5.0, 37°C, 100 mM sodium acetate.

Substrate in series [12]: O=P(O)(O)OC(CO)CO
As to the kind of experiment: purified protein. The conditions noted are these: pH 5.0, 37°C, 100 mM sodium acetate.

For `O=P(O)(O)O[C@@H]1[C@H](OP(=O)(O)O)[C@H](O)[C@@H](O)[C@H](O)[C@H]1OP(=O)(O)O` [D-Ins(1,2,6)P3], the Michaelis-Menten constant (Km) (commonly the substrate concentration at which the rate is half of its maximum) in series [1] is 293 ± 12 µM.
With `F` [Fluoride], the affinity in series [2] corresponds to a Ki of 158 µM.

B1: phytase from Aspergillus niger 11T53A9 (Aspergillus niger) (protein)
chain: T1 sequence (P34752 24-467)
Take B1: the Km in the series “purified protein [3]” stood at 247 ± 6.7 µM; in “purified protein [4]”, 534 ± 7.9 µM; in “purified protein [5]”, 276 ± 7.1 µM; in the series “purified protein [6]”, 741 ± 6.4 µM; in “purified protein [7]” it was 124 ± 3.9 µM; in “purified protein [8]”, 497 ± 8.2 µM. In addition, the Km in the series “purified protein [9]” is 177 ± 1.3 µM; in the series “purified protein [10]”, 54 ± 1.4 µM; in “purified protein [11]”, 587 ± 6.5 µM; in the series “purified protein [12]”, 521 ± 9.1 µM. For the same molecule, the kcat – broadly, the number of substrate molecules converted per active site and unit of time at saturation – in “purified protein [3]” is 23 ± 1.5 s⁻¹; in the series “purified protein [4]”, 12 ± 0.9 s⁻¹; in “purified protein [5]” it was 22 s⁻¹; in the series “purified protein [6]”, 6 ± 0.4 s⁻¹; in “purified protein [7]”, 35 ± 0.9 s⁻¹; in the series “purified protein [8]”, 11 ± 1.1 s⁻¹. Also, the kcat in the series “purified protein [9]” came to 36 s⁻¹; in the series “purified protein [10]”, 190 ± 4.3 s⁻¹; in the series “purified protein [11]” it was 8 s⁻¹; in “purified protein [12]” it was 9 ± 0.3 s⁻¹. Further, the specificity constant (kcat/Km) (commonly the second-order rate constant that governs catalysis at low substrate concentration) in “purified protein [3]” was found to be 93100 M⁻¹ s⁻¹; in “purified protein [4]” it was 22500 M⁻¹ s⁻¹; in the series “purified protein [5]”, 79700 M⁻¹ s⁻¹; in the series “purified protein [6]”, 8100 M⁻¹ s⁻¹; in the series “purified protein [7]”, 282000 M⁻¹ s⁻¹; in “purified protein [8]”, 22100 M⁻¹ s⁻¹. Also, the specificity constant (kcat/Km) in “purified protein [9]” amounted to 203000 M⁻¹ s⁻¹; in the series “purified protein [10]” it was 3.52e+06 M⁻¹ s⁻¹; in the series “purified protein [11]” it was 13600 M⁻¹ s⁻¹; in the series “purified protein [12]”, 17300 M⁻¹ s⁻¹.
